Numbering of substitutions follows the chain as printed. Numbers in names are those of the source. Read-outs that look alike come from different tables or passages of the source.
Tests used:
Assay in all cases: cell-based or functional assay
[1] = molecular target: T1, human IL-2 receptor (IL-2Rα, IL-2Rβ, IL-2Rγ) (human, UniProt P01589 22-272; P14784 27-551; P31785 23-369)
T1 sequence (looked up) 1: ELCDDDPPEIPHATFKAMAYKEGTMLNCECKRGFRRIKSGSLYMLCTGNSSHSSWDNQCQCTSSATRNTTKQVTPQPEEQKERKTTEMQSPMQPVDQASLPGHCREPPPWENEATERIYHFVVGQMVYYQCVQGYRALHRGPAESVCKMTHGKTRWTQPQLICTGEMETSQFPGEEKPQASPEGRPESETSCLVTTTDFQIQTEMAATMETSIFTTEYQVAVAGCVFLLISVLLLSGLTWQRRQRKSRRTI
T1 sequence (looked up) 2: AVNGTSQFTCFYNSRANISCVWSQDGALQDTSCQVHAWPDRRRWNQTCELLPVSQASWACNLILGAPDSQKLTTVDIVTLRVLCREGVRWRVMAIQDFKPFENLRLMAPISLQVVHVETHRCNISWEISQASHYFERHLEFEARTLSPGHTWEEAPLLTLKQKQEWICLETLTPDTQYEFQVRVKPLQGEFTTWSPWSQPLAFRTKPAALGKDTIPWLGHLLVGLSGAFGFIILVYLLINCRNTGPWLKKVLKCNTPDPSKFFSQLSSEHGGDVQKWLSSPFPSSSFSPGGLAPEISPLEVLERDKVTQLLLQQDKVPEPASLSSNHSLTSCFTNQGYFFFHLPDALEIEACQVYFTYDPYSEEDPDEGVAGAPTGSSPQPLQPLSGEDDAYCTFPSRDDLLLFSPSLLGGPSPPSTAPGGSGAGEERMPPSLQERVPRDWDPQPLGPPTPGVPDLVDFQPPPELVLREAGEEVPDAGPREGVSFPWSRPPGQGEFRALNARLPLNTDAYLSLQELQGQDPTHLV
T1 sequence (looked up) 3: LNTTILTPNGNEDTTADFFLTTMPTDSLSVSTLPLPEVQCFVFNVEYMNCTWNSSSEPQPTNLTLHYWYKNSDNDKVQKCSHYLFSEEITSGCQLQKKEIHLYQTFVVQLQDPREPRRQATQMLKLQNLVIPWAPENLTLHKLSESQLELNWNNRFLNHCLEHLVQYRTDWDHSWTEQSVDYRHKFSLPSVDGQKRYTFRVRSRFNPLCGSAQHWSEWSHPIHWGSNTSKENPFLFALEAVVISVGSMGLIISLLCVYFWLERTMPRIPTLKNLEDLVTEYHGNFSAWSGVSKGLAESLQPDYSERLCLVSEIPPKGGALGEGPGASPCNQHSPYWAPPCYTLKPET

[2] = molecular target: T2, human PD-1 on cells (HEK-PD-1 reporter cells; activated PBMC) (human, UniProt Q15116 25-288)
[3] = molecular target: human IL-12 receptor complex (IL-12Rβ1 and IL-12Rβ2) (human, UniProt P42701 24-662; Q99665 24-862)
[4] = molecular target: T1, human IL-2 receptor (IL-2Rα, IL-2Rβ, …); remark: listed apart in the source
[5] = molecular target: T2, human PD-1 on cells (HEK-PD-1 reporter …); remark: listed apart in the source

T2 sequence (Q15116 25-288): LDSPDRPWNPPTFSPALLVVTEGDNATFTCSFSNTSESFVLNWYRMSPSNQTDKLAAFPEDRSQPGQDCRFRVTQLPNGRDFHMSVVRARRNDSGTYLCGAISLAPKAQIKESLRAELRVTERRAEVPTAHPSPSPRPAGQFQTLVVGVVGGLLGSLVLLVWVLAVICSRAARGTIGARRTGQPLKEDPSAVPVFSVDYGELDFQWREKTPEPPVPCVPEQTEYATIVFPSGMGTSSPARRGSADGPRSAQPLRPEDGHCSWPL
Sequence of human IL-12 receptor complex (IL-12Rβ1 and IL-12Rβ2) (Q99665 24-862, chain 2 of 2, other chains not shown): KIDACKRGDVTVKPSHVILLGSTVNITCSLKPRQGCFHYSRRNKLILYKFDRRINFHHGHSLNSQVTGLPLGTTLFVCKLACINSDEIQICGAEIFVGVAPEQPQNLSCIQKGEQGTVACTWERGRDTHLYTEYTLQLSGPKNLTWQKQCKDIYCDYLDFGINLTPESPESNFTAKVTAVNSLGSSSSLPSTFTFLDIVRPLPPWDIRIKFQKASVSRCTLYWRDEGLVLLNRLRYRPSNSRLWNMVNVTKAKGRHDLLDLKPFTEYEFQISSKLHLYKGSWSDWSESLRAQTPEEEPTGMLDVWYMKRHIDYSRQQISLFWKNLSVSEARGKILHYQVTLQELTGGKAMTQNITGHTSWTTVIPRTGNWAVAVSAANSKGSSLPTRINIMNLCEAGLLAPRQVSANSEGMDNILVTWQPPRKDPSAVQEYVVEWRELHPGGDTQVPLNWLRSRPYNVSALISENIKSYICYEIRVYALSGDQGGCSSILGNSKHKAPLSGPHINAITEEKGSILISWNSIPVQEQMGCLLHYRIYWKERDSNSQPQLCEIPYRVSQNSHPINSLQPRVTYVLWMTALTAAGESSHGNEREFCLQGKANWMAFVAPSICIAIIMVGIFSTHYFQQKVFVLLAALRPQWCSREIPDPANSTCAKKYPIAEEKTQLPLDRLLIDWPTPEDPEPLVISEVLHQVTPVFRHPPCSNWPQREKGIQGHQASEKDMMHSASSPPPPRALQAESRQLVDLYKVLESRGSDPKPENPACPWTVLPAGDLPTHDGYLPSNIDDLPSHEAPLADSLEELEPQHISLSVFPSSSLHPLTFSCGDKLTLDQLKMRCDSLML

B1: IL-2(R38D/K43E/E61R)/PD-L1(mut2)-Fc (Fc fusion)
chain 1: FTVTVPKDLYVVEYGSNMTIECKFPVEKQLDLAALQVYWMMEDKNIIQFVHGEEDLKVQHSSYRQRARLLKDQLSLGNAALQITDVKLQDAGVYTCLIAYKGADYKRITVKVNAPYNKINQRILVVDPVTSEHELTCQAEGYPKAEVIWTSSDHQVLSGKTTTTNSKREEKLFNVTSTLRINTTTNEIFYCTFRRLDPEENHTAELVIPELPLAHPPNERGGGGSGGGDKTHTCPPCPAPEDEGGPSVFLFPPKPKDTLMISRTPEVTCVVVDVSHEDPEVKFNWYVDGVEVHNAKTKPREEQYNSTYRVVSVLTVLHQDWLNGKEYKCKVSNKALPAPIEKTISKAKGQPREPQVYVYPPSREEMTKNQVSLTCLVKGFYPSDIAVEWESNGQPENNYKTTPPVLDEDGSFALVSKLTVDKSRWQQGNVFSCSVMHEALHNHYTQKSLSLSPGK
chain 2: FTVTVPKDLYVVEYGSNMTIECKFPVEKQLDLAALQVYWMMEDKNIIQFVHGEEDLKVQHSSYRQRARLLKDQLSLGNAALQITDVKLQDAGVYTCLIAYKGADYKRITVKVNAPYNKINQRILVVDPVTSEHELTCQAEGYPKAEVIWTSSDHQVLSGKTTTTNSKREEKLFNVTSTLRINTTTNEIFYCTFRRLDPEENHTAELVIPELPLAHPPNERGGGSGAPTSSSTKKTQLQLEHLLLDLQMILNGINNYKNPKLTDMLTFEFYMPKKATELKHLQCLERELKPLEEVLNLAQSKNFHLRPRDLISNINVIVLELKGSETTFMCEYADETATIVEFLNRWITFCQSIISTLTGGGGSGGGDKTHTCPPCPAPEKKGGPSVFLFPPKPKDTLMISRTPEVTCVVVDVSHEDPEVKFNWYVDGVEVHNAKTKPREEQYNSTYRVVSVLTVLHQDWLNGKEYKCKVSNKALPAPIEKTISKAKGQPREPQVYVLPPSREEMTKNQVSLLCLVKGFYPSDIAVEWESNGQPENRYMTWPPVLDSDGSFFLYSKLTVDKSRWQQGNVFSCSVMHEALHNHYTQKSLSLSPGK
- IL-2 signal transduction, HEK-IL-2 [1]: 16%
- IL-2 signal transduction, HEK-IL-2-PD-1 [2]: 76%

B2: IL-2(L18R/Q22E/R38D/K43E/E61R/Q126T/S130R)/PD-L1(mut2)-Fc (Fc fusion)
chain 1: B1 chain 1
chain 2: B1 chain 2 with L243R, Q247E, Q351T, S355R
- IL-2 signal transduction, HEK-IL-2 [1]: < 0.1%
- IL-2 signal transduction, HEK-IL-2-PD-1 [2]: < 0.1%

B3: IL-2(R38D/K43E/E61R/Q126T)/PD-L1(mut2)-Fc (Fc fusion)
chain 1: B1 chain 1
chain 2: B1 chain 2 with Q351T
- IL-2 signal transduction, HEK-IL-2 [1]: 2%
- IL-2 signal transduction, HEK-IL-2-PD-1 [2]: 20%

B4: IL-2(L18R/Q22E/R38D/K43E/E61R/Q126T)/PD-L1(mut2)-Fc (Fc fusion)
chain 1: B1 chain 1
chain 2: B1 chain 2 with L243R, Q247E, Q351T
- IL-2 signal transduction, HEK-IL-2 [1]: < 0.1%
- IL-2 signal transduction, HEK-IL-2-PD-1 [2]: 5%

B5: IL-2(R38D/K43E/E61R/Q126T)/IL-12(E59A/F60A)/PD-L1(mut2)-Fc (Fc fusion)
chain 1: FTVTVPKDLYVVEYGSNMTIECKFPVEKQLDLAALQVYWMMEDKNIIQFVHGEEDLKVQHSSYRQRARLLKDQLSLGNAALQITDVKLQDAGVYTCLIAYKGADYKRITVKVNAPYNKINQRILVVDPVTSEHELTCQAEGYPKAEVIWTSSDHQVLSGKTTTTNSKREEKLFNVTSTLRINTTTNEIFYCTFRRLDPEENHTAELVIPELPLAHPPNERGGGGSGGGIWELKKDVYVVELDWYPDAPGEMVVLTCDTPEEDGITWTLDQSSEVLGSGKTLTIQVKAAGDAGQYTCHKGGEVLSHSLLLLHKKEDGIWSTDILKDQKEPKNKTFLRCEAKNYSGRFTCWWLTTISTDLTFSVKSSRGSSDPQGVTCGAATLSAERVRGDNKEYEYSVECQEDSACPAAEESLPIEVMVDAVHKLKYENYTSSFFIRDIIKPDPPKNLQLKPLKNSRQVEVSWEYPDTWSTPHSYFSLTFCVQVQGKSKREKKDRVFTDKTSATVICRKNASISVRAQDRYYSSSWSEWASVPCSGGGGSGGGSGGGGSRNLPVATPDPGMFPCLHHSQNLLRAVSNMLQKARQTLEFYPCTSEEIDHEDITKDKTSTVEACLPLELTKNESCLNSRETSFITNGSCLASRKTSFMMALCLSSIYEDLKMYQVEFKTMNAKLLMDPKRQIFLDQNMLAVIDELMQALNFNSETVPQKSSLEEPDFYKTKIKLCILLHAFRIRAVTIDRVMSYLNASGGGGSGGGDKTHTCPPCPAPEDEGGPSVFLFPPKPKDTLMISRTPEVTCVVVDVSHEDPEVKFNWYVDGVEVHNAKTKPREEQYNSTYRVVSVLTVLHQDWLNGKEYKCKVSNKALPAPIEKTISKAKGQPREPQVYVYPPSREEMTKNQVSLTCLVKGFYPSDIAVEWESNGQPENNYKTTPPVLDEDGSFALVSKLTVDKSRWQQGNVFSCSVMHEALHNHYTQKSLSLSPGK
chain 2: B1 chain 2 with Q351T
- IL-12 signal transduction, HEK-IL-12 [3]: < 0.2%
- IL-2 signal transduction, HEK-IL-2 [4]: 2%
- IL-2 signal transduction, HEK-IL-2-PD-1 [5]: 20%
- IL-12 signal transduction, HEK-IL-12-PD-1 [5]: 25%

B6: IL-2(L18R/Q22E/R38D/K43E/E61R)/IL-12(E59A/F60A)/PD-L1(mut2)-Fc (Fc fusion)
chain 1: B5 chain 1
chain 2: B1 chain 2 with L243R, Q247E
- IL-12 signal transduction, HEK-IL-12 [3]: < 0.2%
- IL-2 signal transduction, HEK-IL-2 [4]: 4%
- IL-2 signal transduction, HEK-IL-2-PD-1 [5]: 35%
- IL-12 signal transduction, HEK-IL-12-PD-1 [5]: 19%

B7: IL-2(L18R/Q22E/R38D/K43E/E61R)/PD-L1(mut2)-Fc (Fc fusion)
chain 1: B1 chain 1
chain 2: B1 chain 2 with L243R, Q247E
- IL-2 signal transduction, HEK-IL-2 [1]: 4%
- IL-2 signal transduction, HEK-IL-2-PD-1 [2]: 35%

Reference: patent US20240392004A1 (IMMUNOWAKE, published 2024)
